To fix the notation:
B1: PLK2 (parent)
chain: MELLRTITYQPAASTKMCEQALGK
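Further: lentivirally expressed fusions sorted by FACS into six bins by GFP to DsRed ratio, PSI derived from sequencing read proportions per bin multiplied by bin number.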

This series covers variants of B1. Kind of series: protein stability index of a GFP-peptide fusion (GPS, HEK-293T) (PSI 1-6); higher = more stable. Conditions: c terminus: a fixed tail appended.
For the variant MELLRTITYQPATSTKMCEQALGK, the protein stability index came out at 1.15. With MELLRTITYQPAWSTKMCEQALGK the figure was 1.82. With MELLRTITYQPAISTKMCEQALGK the figure was 1.82; with MELLRTITYQPAHSTKMCEQALGK, 2.36; with MELLRTITYQPAMSTKMCEQALGK, 2.88. With MELLRTITYQPAFSTKMCEQALGK, the protein stability index was 2.33.

As for MELLRTITYQPADSTKMCEQALGK, the protein stability index came to 2.51. Next, MELLRTITYQPAQSTKMCEQALGK: 3.13; MELLRTITYQPANSTKMCEQALGK: 2.54; MELLRTITYQPASSTKMCEQALGK: 3.29.

Turning to MELLRTITYQPARSTKMCEQALGK, the protein stability index came to 2.39. Take MELLRTITYQPAESTKMCEQALGK: the protein stability index stood at 2.09. With MELLRTITYQPAGSTKMCEQALGK the figure was 2.97. Next, MELLRTITYQPAPSTKMCEQALGK: 1.74; MELLRTITYQPALSTKMCEQALGK: 2.43; MELLRTITYQPAYSTKMCEQALGK: 2.42.

As to MELLRTITYQPACSTKMCEQALGK, the protein stability index is 3.34. MELLRTITYQPAKSTKMCEQALGK: the protein stability index stood at 2.61. Next, MELLRTITYQPAVSTKMCEQALGK: 1.96. Next, MELLRTITYQPVASTKMCEQALGK: 2.4; MELLRTITYQPTASTKMCEQALGK: 2.81. With MELLRTITYQPYASTKMCEQALGK the figure was 2.21; with MELLRTITYQPWASTKMCEQALGK, 1.79. On to MELLRTITYQPAASTNMCEQALGK, for which the protein stability index turned out to be 2.01.

For MELLRTITYQPAASTVMCEQALGK, the protein stability index stood at 1.96. Consider MELLRTITYQPAASTCMCEQALGK, for which the protein stability index stood at 2.95. With MELLRTITYQPAASTMMCEQALGK the figure was 1.85; with MELLRTITYQPAASTFMCEQALGK, 1.83; with MELLRTITYQPAASTHMCEQALGK, 1.76. Next, MELLRTITYQPAASTLMCEQALGK: 1.84; MELLRTITYQPAASTSMCEQALGK: 2.34. Next, MELLRTITYQPAASTGMCEQALGK: 1.81; MELLRTITYQPAASTAMCEQALGK: 2.13. Consider MELLRTITYQPAASTRMCEQALGK, for which the protein stability index was 2.07. Next, MELLRTITYQPAASTIMCEQALGK: 2.61; MELLRTITYQPAASTPMCEQALGK: 2.02. MELLRTITYQPAASTWMCEQALGK: the protein stability index was 2.05. With MELLRTITYQPAASTEMCEQALGK the figure was 2.18. With MELLRTITYQPAASTDMCEQALGK the figure was 2.38; with MELLRTITYQPAASTQMCEQALGK, 2.22; with MELLRTITYQPAASTYMCEQALGK, 3.02. Next, MELLRTITYQPAASTTMCEQALGK: 2.55; MELLRTITYQPAAHTKMCEQALGK: 3.11.

MELLRTITYQPAALTKMCEQALGK: the protein stability index was 1.64. Turning to MELLRTITYQPAAYTKMCEQALGK, the protein stability index came out at 3.88. With MELLRTITYQPAADTKMCEQALGK the figure was 1.68; with MELLRTITYQPAAPTKMCEQALGK, 1.5; with MELLRTITYQPAAETKMCEQALGK, 2.3. Take MELLRTITYQPAATTKMCEQALGK: the protein stability index came out at 2.5. For MELLRTITYQPAAVTKMCEQALGK, the protein stability index is 2.44. Next, MELLRTITYQPAAMTKMCEQALGK: 2.33; MELLRTITYQPAANTKMCEQALGK: 3.48; MELLRTITYQPAAQTKMCEQALGK: 2.5. Regarding MELLRTITYQPAAWTKMCEQALGK, the protein stability index worked out at 3.03. With MELLRTITYQPAACTKMCEQALGK the figure was 2.5; with MELLRTITYQPAAITKMCEQALGK, 1.61. With MELLRTITYQPAAATKMCEQALGK the figure was 3.14; with MELLRTITYQPAAGTKMCEQALGK, 1.9; with MELLRTITYQPAAKTKMCEQALGK, 2.24. Next, MELLRTITYQPAARTKMCEQALGK: 2.05. For MELLRTITYQPAAFTKMCEQALGK, the protein stability index came out at 2.49.

For MELLRTITYQPAASQKMCEQALGK, the protein stability index came out at 2.87. MELLRTITYQPAASSKMCEQALGK: the protein stability index worked out at 2.41. Next, MELLRTITYQPAASCKMCEQALGK: 2.07; MELLRTITYQPAASAKMCEQALGK: 2.17; MELLRTITYQPAASLKMCEQALGK: 2.23. Next, MELLRTITYQPAASHKMCEQALGK: 3.23; MELLRTITYQPAASMKMCEQALGK: 2.87. On to MELLRTITYQPAASYKMCEQALGK, for which the protein stability index is 2.83.

Consider MELLRTITYQPAASNKMCEQALGK, for which the protein stability index worked out at 2.46. With MELLRTITYQPAASFKMCEQALGK the figure was 1.79.

As to MELLRTITYQPAASIKMCEQALGK, the protein stability index was found to be 2.39. With MELLRTITYQPAASWKMCEQALGK the figure was 3.77; with MELLRTITYQPAASEKMCEQALGK, 2.53; with MELLRTITYQPAASKKMCEQALGK, 1.68. In the case of MELLRTITYQPAASPKMCEQALGK, the protein stability index was 1.58.

Take MELLRTITYQPAASDKMCEQALGK: the protein stability index turned out to be 2.95.

As for MELLRTITYQPAASGKMCEQALGK, the protein stability index amounted to 2.53. With MELLRTITYQPAASVKMCEQALGK the figure was 1.54; with MELLRTITYQPAASRKMCEQALGK, 1.44.

For MELLRTITYQPAASTKLCEQALGK, the protein stability index is 2.84. Consider MELLRTITYQPAASTKPCEQALGK, for which the protein stability index was 2.04. With MELLRTITYQPAASTKNCEQALGK the figure was 2.19; with MELLRTITYQPAASTKQCEQALGK, 2.65. Next, MELLRTITYQPAASTKFCEQALGK: 1.52; MELLRTITYQPAASTKCCEQALGK: 2.07; MELLRTITYQPAASTKICEQALGK: 2.18. Next, MELLRTITYQPAASTKACEQALGK: 2.37. Turning to MELLRTITYQPAASTKKCEQALGK, the protein stability index stood at 2.98. With MELLRTITYQPAASTKGCEQALGK the figure was 1.53; with MELLRTITYQPAASTKDCEQALGK, 2.02; with MELLRTITYQPAASTKECEQALGK, 1.86. With MELLRTITYQPAASTKHCEQALGK the figure was 2.26; with MELLRTITYQPAASTKRCEQALGK, 2.68.

These data come from the supplement of paper PMC10567573.
